Measurements reported in paper PMC11586414.

Target: AMPylated HEPN^Lpg (Legionella pneumophila Philadelphia 1) (UniProt Q5ZRG2)
Experiment: crystal structure

AMPylated HEPN^Lpg (from UniProt Q5ZRG2 1-139) (natural protein)
stoichiometry N: 4
